The source of these data is publication PMC6082896.

The target of the series is T1, OxyR (Pseudomonas aeruginosa (PAO1?)) (UniProt Q9HTL4).
T1 sequence: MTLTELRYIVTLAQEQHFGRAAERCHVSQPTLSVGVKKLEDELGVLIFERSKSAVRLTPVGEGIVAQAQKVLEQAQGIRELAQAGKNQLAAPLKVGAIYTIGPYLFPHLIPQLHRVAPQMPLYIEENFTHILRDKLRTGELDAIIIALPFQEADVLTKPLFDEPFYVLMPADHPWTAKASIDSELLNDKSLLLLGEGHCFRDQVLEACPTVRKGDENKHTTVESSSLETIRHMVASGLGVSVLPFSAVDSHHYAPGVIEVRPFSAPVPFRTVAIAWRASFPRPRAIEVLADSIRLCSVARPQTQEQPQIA
The series can be described thus: EMSA. The settings on record: 20 mM Tris-HCl pH 7.0, 50 mM KCl, 1 mM EDTA, 5% glycerol, 50 ug/ml BSA, 5 ug/ml calf thymus DNA, 0.5 ug/ml poly[dI-dC], 50 ug/ml salmon sperm DNA, 100 mM DTT …. (In general: A gel shift assay detects complexes by their altered migration in electrophoresis.)

With “AAGTCGGTGATGGCCTCGCCGGCCAGGCGGCGCAGGCGCTTCTGCAGTTTGTTCTGATTGACCGAAAGGGTGCCCATGGTGCTCTGGAATCCGGGTGTTCGAGGAGAAAAGCTGGCTATTTTACGCACAAAGCGACGCCGACCCCAGCCCCTCCCGACGCCCGATGCTAGTCTTGCCCCATGACTCCCGACCTCGACCACCGCCTCGACCT (double strand) [ttcA promoter fragment]”, the binding result is on record as “binds”.
